1 molecule from US20150111231A1 can be followed below.

Test [1] concerns the target human sAPPβ (MESO SCALE DISCOVERY) (human) (UniProt P05067). The test can be described thus: SPR (ProteOn), 5H10 immobilized on GLM chip, sAPPβ as analyte at 1000, 250, 62.5, 15.6, 3.91 nM.
For test [2] the target is unchanged. The experiment in a line: SPR (ProteOn, GLM chip), 5H10 immobilised, sAPPβ as analyte.

Sequence of human sAPPβ (MESO SCALE DISCOVERY) (human) (P05067 18-671): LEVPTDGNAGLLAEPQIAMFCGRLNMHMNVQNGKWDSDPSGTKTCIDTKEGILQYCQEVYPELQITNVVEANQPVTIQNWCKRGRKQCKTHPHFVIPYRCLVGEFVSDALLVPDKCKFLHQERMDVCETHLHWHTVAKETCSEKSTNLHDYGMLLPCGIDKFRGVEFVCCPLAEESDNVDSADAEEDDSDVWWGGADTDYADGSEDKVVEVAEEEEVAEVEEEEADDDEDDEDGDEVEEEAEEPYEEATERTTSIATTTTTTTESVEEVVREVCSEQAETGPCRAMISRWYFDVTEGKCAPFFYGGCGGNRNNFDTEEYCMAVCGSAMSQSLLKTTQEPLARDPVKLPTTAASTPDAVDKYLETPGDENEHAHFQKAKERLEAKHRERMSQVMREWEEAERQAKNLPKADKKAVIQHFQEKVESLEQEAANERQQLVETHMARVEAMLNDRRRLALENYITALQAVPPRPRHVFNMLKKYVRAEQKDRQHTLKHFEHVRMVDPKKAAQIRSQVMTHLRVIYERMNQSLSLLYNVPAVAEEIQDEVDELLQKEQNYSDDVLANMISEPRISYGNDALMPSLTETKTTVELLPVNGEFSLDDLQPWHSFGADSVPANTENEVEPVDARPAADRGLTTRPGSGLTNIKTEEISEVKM

B1: anti-internal structure antibody 5H10 (antibody, IgG1, V domains shown)
VH: QVQLQQSGTELAKPGASVKMSCKASGYTFIDYWMHWIKQSPGQGLEWIGFINPRSGSTTYNQKFRDKATLTVDTSSSTAYMQLTSLTSEDSAVYYCTRPDFDYFDYWGQGTTLTVSS
VL: DVLMTQTPLSLPVSLGDHASISCRSSQSIVQSNGNTYLEWYLQKPGQSPKLLIYKVSNRFSGVPDRFSGSGSGTDFTLKISSVEAEDLGIYYCFQASHVPLTFGAGTKLELKR
For the molecule B1, the dissociation constant Kd in test [1] amounted to 0.62 nM. For the same molecule, in test [2], the koff was 5.62e-05 s⁻¹ and the kon turned out to be 90800 M⁻¹ s⁻¹.

As a reminder, the Kd is the constant that tells how readily two partners part at equilibrium. Lower therefore signals higher affinity. One may read the koff as the first-order rate constant of dissociation. Usually kon stands for the rate constant with which the complex forms. A lower kon goes with slower complex formation.
